Each block holds one substance with its values, some of them ahead of it.
Key:
[1] = target: wild-type (polymerization-competent) yeast αβ-tubulin (yeast) (UniProt P09733); assay: AUC; sedimentation velocity; TOG1-TOG2 or its mutants mixed with αβ-tubulin (∼5 molar equivalents of αβ-tubulin; seven concentrations of TOG1-TOG2 with 0.3 μM αβ-tubulin); two-site binding model; RB100 with 20 μM GTP, 20°C
[2] = target: wild-type (polymerization-competent) yeast αβ-tubulin (yeast) (UniProt P09733); assay: AUC; sedimentation velocity; seven concentrations of TOG1 or TOG2 (44 nM-4.5 μM) titrated into 0.35 μM αβ-tubulin; 1:1 binding isotherm fitted; RB100 with 20 μM GTP, 20°C

stoichiometry N (αβ-tubulins per TOG1-TOG2) [1]: 2
Substance: TOG1-TOG2(1-560) of Stu2p (from UniProt P46675 1-560) (domain or fragment)

stoichiometry N (αβ-tubulin per TOG1-TOG2) [1]: 1
Substance: TOG1-TOG2 of Stu2p with the mutation printed as W314A (from UniProt P46675 1-560) (domain or fragment)

stoichiometry N (αβ-tubulin per TOG1-TOG2) [1]: 1
Substance: TOG1-TOG2 of Stu2p with the mutation R519A (from UniProt P46675 1-560) (domain or fragment)

Kd [2]: 70 nM
stoichiometry N [2]: 1
Substance: TOG1 domain from Stu2p, TOG1(1-317) (from UniProt P46675 1-317) (domain or fragment)

From article PMC4145800
